Results from US20260242478A1 (published 2026).
Where no end group is shown, it is not given here.

Legend:
PSMA Fab [1] = molecular target: T1, PSMA Fab; assay: phage ELISA, biotinylated PSMA Fab on neutravidin plate pre-incubated with PSMA antigen as competitor, anti-M13-HRP
T1 construct: also called Anti-PSMA Fab; 006 PSMA Fab
Experimental: (§1) Clonal phage were harvested as crude supernatants and screened via standard ELISAs. […] Prior to the addition of clonal phage. wells were incubated with blocking buffer and PSMA antigen or blocking buffer alone. Without washing or aspirating, clonal phage supernatants were then added to the wells and incubated for a short time. Wells were then washed followed by detection of bound phage using a horse radish conjugated anti-M13 antibody.

PSMA Fab [2] = molecular target: T1, PSMA Fab; assay: phage ELISA, biotinylated PSMA Fab on neutravidin plate, bound phage detected with anti-M13-HRP
Experimental: as §1

006 PSMA Fab [3] = molecular target: T2, 006 PSMA Fab; assay: clonal phage ELISA on PSMA Fab-coated plate; competitor: PSMA antigen pre-incubated in the well
T2 construct: Biotinylated and captured on neutravidin-coated plates in the phage ELISA; also called Anti-PSMA Fab
Experimental: as §1

006 PSMA Fab [4] = molecular target: T2, 006 PSMA Fab; assay: clonal phage ELISA; biotinylated PSMA Fab on neutravidin plate, anti-M13-HRP detection
Experimental: as §1

PSMA Fab (006 PSMA Fab) [5] = molecular target: T3, PSMA Fab (006 PSMA Fab); assay: clonal phage ELISA; biotinylated PSMA Fab on neutravidin plate pre-incubated with competitor PSMA antigen; anti-M13-HRP detection
T3 construct: also called Anti-PSMA Fab; anti-PSMA Fab
Experimental: as §1

PSMA Fab (006 PSMA Fab) [6] = molecular target: T3, PSMA Fab (006 PSMA Fab); assay: clonal phage ELISA; biotinylated PSMA Fab on neutravidin plate, blocking buffer alone; anti-M13-HRP detection;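 further: clonal phage applied as crude supernatants to wells preincubated with blocking buffer, binding read by ELISA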
Experimental: as §1

PSMA Fab (006 PSMA Fab) [7] = molecular target: T4, PSMA Fab (006 PSMA Fab); assay: clonal phage ELISA on captured PSMA Fab, wells pre-incubated with PSMA antigen as competitor (column head not shown, assumed)
T4 construct: In the phage ELISA the PSMA Fab was biotinylated and captured on neutravidin coated plates; also called Anti-PSMA Fab; anti-PSMA Fab

PSMA Fab (006 PSMA Fab) [8] = molecular target: T4, PSMA Fab (006 PSMA Fab); assay: clonal phage ELISA on biotinylated PSMA Fab captured on neutravidin plates, anti-M13-HRP detection;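 further: crude clonal phage supernatants added to wells preincubated with PSMA antigen or with blocking buffer only (no wash between), briefly incubated, then washed before detecting bound phage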
Experimental: as §1

Binder | Phage binding ELISA signal, Anti-PSMA Fab with PSMA antigen (PSMA Fab [1]) | Phage binding ELISA signal, Anti-PSMA Fab (PSMA Fab [2]) | phage binding ELISA signal in presence of PSMA (006 PSMA Fab [3]) | phage binding ELISA signal (006 PSMA Fab [4]) | also measured
IEKWCIPQWMCGNP (cysteine pairing not given here; also: fused to phage pIII (clonal phage display)) [Phage-2403] | 0.0574 | 1.36 | – | – | –
HDKLCIPLWMCDGV [Phage-2377] | – | – | 0.0834 | 1.39 | –
LEKWCTPVWMCEGV [Phage-2318] | – | – | – | – | Phage binding ELISA signal, Anti-PSMA Fab in presence of PSMA antigen (PSMA Fab (006 PSMA Fab) [5]): 0.0702; Phage binding ELISA signal, Anti-PSMA Fab (PSMA Fab (006 PSMA Fab) [6]): 1.46
VMKWCTPEWMCQVF [Phage-2402] | 0.0622 | 1.37 | – | – | –
LEKWCRPAWMCNGM [Phage-2393] | 0.0594 | 1.38 | – | – | –
FYKWCTPEWMCTVN [Phage-2384] | – | – | 0.138 | 1.38 | –
SPKWCTPSWMCELQ [Phage-2392] | 0.06 | 1.38 | – | – | –
HTTWCTPAWMCQGF [Phage-2404] | 0.0895 | 1.36 | – | – | –
WDHWCTPAWMCFNA [Phage-2323] | – | – | – | – | Phage binding ELISA signal, Anti-PSMA Fab in presence of PSMA antigen (PSMA Fab (006 PSMA Fab) [5]): 0.119; Phage binding ELISA signal, Anti-PSMA Fab (PSMA Fab (006 PSMA Fab) [6]): 1.45
LEKWCIPTWMCEMT [Phage-2322] | – | – | – | – | Phage binding ELISA signal, Anti-PSMA Fab in presence of PSMA antigen (PSMA Fab (006 PSMA Fab) [5]): 0.0679; Phage binding ELISA signal, Anti-PSMA Fab (PSMA Fab (006 PSMA Fab) [6]): 1.45
GPTLCIPAWMCSGM [Phage-2326] | – | – | – | – | Phage binding ELISA signal, Anti-PSMA Fab in presence of PSMA antigen (PSMA Fab (006 PSMA Fab) [5]): 0.0802; Phage binding ELISA signal, Anti-PSMA Fab (PSMA Fab (006 PSMA Fab) [6]): 1.45
ASMWCIPPWMCAED [Phage-2395] | 0.085 | 1.37 | – | – | –
FPKWCTPSWMCDFV [Phage-2391] | 0.0984 | 1.38 | – | – | –
DVRWCTPPWMCVAM [Phage-2400] | 0.078 | 1.37 | – | – | –
EVKWCIPEWMCMVV [Phage-2396] | 0.0647 | 1.37 | – | – | –
SDNWCKPKWMCETI [Phage-2319] | – | – | – | – | Phage binding ELISA signal, Anti-PSMA Fab in presence of PSMA antigen (PSMA Fab (006 PSMA Fab) [5]): 0.116; Phage binding ELISA signal, Anti-PSMA Fab (PSMA Fab (006 PSMA Fab) [6]): 1.45
LDKWCIPPWMCETV [Phage-2321] | – | – | – | – | Phage binding ELISA signal, Anti-PSMA Fab in presence of PSMA antigen (PSMA Fab (006 PSMA Fab) [5]): 0.0597; Phage binding ELISA signal, Anti-PSMA Fab (PSMA Fab (006 PSMA Fab) [6]): 1.45
PDKWCIPQWMCSQM (cysteine pairing not given here; also: fused to phage pIII (clonal phage display)) [Phage-2406] | – | – | – | – | Phage binding ELISA signal, Anti-PSMA Fab with PSMA antigen (PSMA Fab (006 PSMA Fab) [7]): 0.0822; Phage binding ELISA signal, Anti-PSMA Fab (PSMA Fab (006 PSMA Fab) [8]): 1.36
DGKWCIPPWMCAMA [Phage-2375] | – | – | 0.0859 | 1.4 | –
MQHWCVPPWMCQSL [Phage-2401] | 0.082 | 1.37 | – | – | –
VEKLCIPHWMCEAS [Phage-2325] | – | – | – | – | Phage binding ELISA signal, Anti-PSMA Fab in presence of PSMA antigen (PSMA Fab (006 PSMA Fab) [5]): 0.0647; Phage binding ELISA signal, Anti-PSMA Fab (PSMA Fab (006 PSMA Fab) [6]): 1.45
VVKWCTPAWMCELQ [Phage-2397] | 0.0757 | 1.37 | – | – | –
VVKWCIPTWMCQTL [Phage-2378] | – | – | 0.101 | 1.39 | –

Binder | Phage binding ELISA signal, Anti-PSMA Fab with PSMA antigen (PSMA Fab [1]) | Phage binding ELISA signal, Anti-PSMA Fab (PSMA Fab [2]) | phage binding ELISA signal in presence of PSMA (006 PSMA Fab [3]) | phage binding ELISA signal (006 PSMA Fab [4]) | also measured
MGNWCIPEWMCWGT [Phage-2374] | – | – | 0.0727 | 1.4 | –
FEHWCTPPWMCFSS [Phage-2383] | – | – | 0.0713 | 1.38 | –
VQKWCIPPWMCQIS [Phage-2380] | – | – | 0.0907 | 1.39 | –
WEKWCTPAWMCAVA [Phage-2399] | 0.0716 | 1.37 | – | – | –
SVHWCTPPWMCQGF [Phage-2327] | – | – | – | – | Phage binding ELISA signal, Anti-PSMA Fab in presence of PSMA antigen (PSMA Fab (006 PSMA Fab) [5]): 0.0771; Phage binding ELISA signal, Anti-PSMA Fab (PSMA Fab (006 PSMA Fab) [6]): 1.45
LERWCIPDWMCEWP [Phage-2394] | 0.078 | 1.37 | – | – | –
DAKWCIPDWMCYGF [Phage-2387] | – | – | 0.0838 | 1.38 | –
WVKWCTPPWMCEWD [Phage-2389] | 0.123 | 1.38 | – | – | –
HSHWCIPPWMCTFV [Phage-2324] | – | – | – | – | Phage binding ELISA signal, Anti-PSMA Fab in presence of PSMA antigen (PSMA Fab (006 PSMA Fab) [5]): 0.162; Phage binding ELISA signal, Anti-PSMA Fab (PSMA Fab (006 PSMA Fab) [6]): 1.45
VSNWCIPRGLCTQM [Phage-2320] | – | – | – | – | Phage binding ELISA signal, Anti-PSMA Fab in presence of PSMA antigen (PSMA Fab (006 PSMA Fab) [5]): 0.0665; Phage binding ELISA signal, Anti-PSMA Fab (PSMA Fab (006 PSMA Fab) [6]): 1.45
IPKWCTPVWMCAGF [Phage-2385] | – | – | 0.0806 | 1.38 | –
LGIWCIPEWMCVSA [Phage-2381] | – | – | 0.0793 | 1.39 | –
TIKWCTPPWMCIMN [Phage-2388] | – | – | 0.103 | 1.38 | –
LHKWCTPAWMCEVP [Phage-2379] | – | – | 0.0904 | 1.39 | –
VEKWCKPEWMCTSL [Phage-2386] | – | – | 0.0692 | 1.38 | –
VFHLCMPPWMCSQD [Phage-2390] | 0.0997 | 1.38 | – | – | –
FGISCTPSWMCEGF [Phage-2398] | 0.0988 | 1.37 | – | – | –
GEKWCIPTWMCDWT [Phage-2373] | – | – | 0.0544 | 1.4 | –
MEKWCIPSWMCVGM [Phage-2405] | – | – | – | – | Phage binding ELISA signal, Anti-PSMA Fab with PSMA antigen (PSMA Fab (006 PSMA Fab) [7]): 0.0682; Phage binding ELISA signal, Anti-PSMA Fab (PSMA Fab (006 PSMA Fab) [8]): 1.36
PDKWCIPQWMCDIT [Phage-2376] | – | – | 0.0617 | 1.39 | –
VDKWCIPAWMCVSA [Phage-2328] | – | – | – | – | Phage binding ELISA signal, Anti-PSMA Fab in presence of PSMA antigen (PSMA Fab (006 PSMA Fab) [5]): 0.0715; Phage binding ELISA signal, Anti-PSMA Fab (PSMA Fab (006 PSMA Fab) [6]): 1.45
DFMRCTPEWMCTGF [Phage-2382] | – | – | 0.0663 | 1.39 | –
